Measured values as given in PMC2945414.

Legend:
[1] = molecular target: PKA (RIIα), regulatory subunit of type II cAMP-dependent protein kinase, residues 2-44; test: ITC
FLAG-tagged PKA (RIIα) = FLAG-tagged PKA (RIIα) (UniProt P13861); test: co-IP
PKA (RIα) (Homo sapiens) = PKA (RIα) (Homo sapiens) (UniProt P10644); conditions: cited from earlier work
[2] = molecular target: PKA (RIIα) (Homo sapiens) (UniProt P13861); conditions: cited from earlier work

Sequence of D-AKAP2 (O43572 29-662): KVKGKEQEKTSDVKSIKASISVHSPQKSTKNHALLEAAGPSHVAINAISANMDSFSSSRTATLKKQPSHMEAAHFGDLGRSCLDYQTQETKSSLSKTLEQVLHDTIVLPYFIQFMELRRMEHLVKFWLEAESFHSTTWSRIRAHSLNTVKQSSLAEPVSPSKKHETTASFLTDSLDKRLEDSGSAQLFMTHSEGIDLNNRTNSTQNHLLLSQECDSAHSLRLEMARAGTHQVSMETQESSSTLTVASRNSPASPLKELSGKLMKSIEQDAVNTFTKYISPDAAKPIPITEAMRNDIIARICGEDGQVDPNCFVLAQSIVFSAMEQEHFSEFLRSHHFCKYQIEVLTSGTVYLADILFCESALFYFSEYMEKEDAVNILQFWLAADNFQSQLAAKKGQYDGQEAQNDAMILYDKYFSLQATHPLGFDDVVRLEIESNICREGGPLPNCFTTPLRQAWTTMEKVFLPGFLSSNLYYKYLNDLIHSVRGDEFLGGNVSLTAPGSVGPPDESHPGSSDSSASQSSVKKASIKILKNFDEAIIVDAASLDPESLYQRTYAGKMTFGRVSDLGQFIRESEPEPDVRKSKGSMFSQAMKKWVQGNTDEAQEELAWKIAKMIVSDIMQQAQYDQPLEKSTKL
Sequence of PKA (RIα) (Homo sapiens) (P10644 whole entry): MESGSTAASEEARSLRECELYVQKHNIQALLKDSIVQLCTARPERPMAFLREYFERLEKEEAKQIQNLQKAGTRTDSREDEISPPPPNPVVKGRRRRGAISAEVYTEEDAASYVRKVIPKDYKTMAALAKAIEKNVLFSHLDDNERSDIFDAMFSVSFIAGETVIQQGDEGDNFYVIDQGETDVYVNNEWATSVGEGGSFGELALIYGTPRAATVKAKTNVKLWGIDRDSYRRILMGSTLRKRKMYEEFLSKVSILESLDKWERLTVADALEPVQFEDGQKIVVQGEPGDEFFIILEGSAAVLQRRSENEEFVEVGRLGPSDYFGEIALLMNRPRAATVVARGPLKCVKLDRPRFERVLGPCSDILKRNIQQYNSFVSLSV

Substance | Kd [1] [µM] | also measured
Trx-NHR3(585-615) V604A (domain or fragment) | 0.383 | 
Trx-NHR3(585-615) V601A (domain or fragment) | 14 | 
Trx-NHR3(585-615) (domain or fragment) | 0.256 | 
AML1-ETO V601A (natural protein) |  | fold decrease of the interaction relative to AML1-ETO (FLAG-tagged PKA (RIIα)): 2 fold
D-AKAP2 (from UniProt O43572) |  | Kd (PKA (RIα) (Homo sapiens)): 0.048 µM; Kd [2]: 0.002 µM
AML1-ETO Nervy Homology Region 3 (NHR3) domain, residues A585-N654 (domain or fragment) | 0.067 | stoichiometry N (NHR3 : PKA (RIIα) chains (1:2)) [1]: 0.5

Now from value to substance, other results behind:

Kd [1] [µM] | Substance | also measured
0.128 | Trx-NHR3(585-654) (domain or fragment) | 
0.909 | Trx-NHR3(585-615) W594A (domain or fragment) | 
